Measured values published in IntAct's records for PubMed 16938849.

B1: Mitogen-activated protein kinase kinase kinase kinase 4 (Mus musculus), P97820 (parent)
chain: MANDSPAKSLVDIDLSSLRDPAGIFELVEVVGNGTYGQVYKGRHVKTVTAAIKVMDVTEDEEEEITLEINMLKKYSHHRNIATYYGAFIKKSPPGHDDQLWLVMEFCGAGSITDLVKNTKGNTLKEDWIAYISREILRGLAHLHIHHVIHRDIKGQNVLLTENAEVKLVDFGVSAQLDRTVGRRNTFIGTPYWMAPEVIACDENPDATYDYRSDLWSCGITAIEMAEGGPPLCDMHPMRALFLIPRNPPPRLKSKKWSKKFFSFIEGCLVKNYMQRPSTEQLLKHPFIRDQPNERQVRIQLKDHIDRTRKKRGEKDETEYEYSGSEEEEEEVPEQEGEPSSIVNVPGESTLRRDFLRLQQENKERSEALRRQQLLQEQQLREQEEYKRQLLAERQKRIEQQKEQRRRLEEQQRREREARRQQEREQRRREQEEKRRLEELERRRKEEEERRRAEEEKRRVEREQEYIRRQLEEEQRHLEILQQQLLQEQAMLLHDHRRPHAQQQPPPPQQQDRSKPSFHAPEPKPHYDPADRAREVQWSHLASLKNNVSPVSRSHSFSDPSPKFAHHHLRSQDPCPPSRSEGLSQSSDSKSEVPEPTQKAWSRSDSDEVPPRVPVRTTSRSPVLSRRDSPLQGGGQQNSQAGQRNSTSSIEPRLLWERVEKLVPRPGSGSSSGSSNSGSQPGSHPGSQSGSGERFRVRSSSKSEGSPSPRQESAAKKPDDKKEVFRSLKPAGEVDLTALAKELRAVEDVRPPHKVTDYSSSSEESGTTDEEEEDVEQEGADDSTSGPEDTRAASSPNLSNGETESVKTMIVHDDVESEPAMTPSKEGTLIVRQTQSASSTLQKHKSSSSFTPFIDPRLLQISPSSGTTVTSVVGFSCDGLRPEAIRQDPTRKGSVVNVNPTNTRPQSDTPEIRKYKKRFNSEILCAALWGVNLLVGTESGLMLLDRSGQGKVYPLISRRRFQQMDVLEGLNVLVTISGKKDKLRVYYLSWLRNKILHNDPEVEKKQGWTTVGDLEGCVHYKVVKYERIKFLVIALKSSVEVYAWAPKPYHKFMAFKSFGELLHKPLLVDLTVEEGQRLKVIYGSCAGFHAVDVDSGSVYDIYLPTHIQCSIKPHAIIILPNTDGMELLVCYEDEGVYVNTYGRITKDVVLQWGEMPTSVAYIRSNQTMGWGEKAIEIRSVETGHLDGVFMHKRAQRLKFLCGRNDKVFFSSVRSGGSSQVYFMTLGRTSLLSW

Variants of: B1
Details: with Ezr

| Variant | effect of a mutation on the interaction |
| --- | --- |
| D152N | increasing interaction strength |
